{"source": "paper PMC9635285", "key": {"[1]": {"target": "subtilisin-digested microtubules (lacking E-hooks) (porcine) (UniProt P02550)", "sequence (P02550 whole entry, looked up)": "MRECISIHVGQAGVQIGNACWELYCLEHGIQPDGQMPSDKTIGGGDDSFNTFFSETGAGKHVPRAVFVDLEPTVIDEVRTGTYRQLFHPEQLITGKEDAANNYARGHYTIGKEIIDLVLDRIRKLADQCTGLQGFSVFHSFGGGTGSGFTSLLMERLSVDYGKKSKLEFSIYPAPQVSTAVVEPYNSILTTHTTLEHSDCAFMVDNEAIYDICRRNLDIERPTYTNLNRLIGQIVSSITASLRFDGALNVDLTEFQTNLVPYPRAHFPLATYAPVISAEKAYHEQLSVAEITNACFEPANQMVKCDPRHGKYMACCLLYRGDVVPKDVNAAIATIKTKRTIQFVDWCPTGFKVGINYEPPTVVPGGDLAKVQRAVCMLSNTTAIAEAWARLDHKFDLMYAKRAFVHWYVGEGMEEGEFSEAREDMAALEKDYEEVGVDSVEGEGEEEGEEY", "assay": "co-sedimentation"}, "[2]": {"target": "Taxol-stabilised microtubules polymerised from porcine brain tubulin (porcine) (UniProt P02550)", "assay": "co-sedimentation"}}, "note": "Values joined by “and” are separate entries in the source; they are usually repeats but may differ in a detail not shown here. Equal values may be shown once.", "data": [{"substance": "KLP-18 C-stalk (C-terminal half of the KLP-18 stalk) (domain or fragment)", "values": [{"measurement": "Shift to pellet (%)", "setting": "[1]", "value": 26.7, "unit": "%"}, {"measurement": "Shift to pellet (%)", "setting": "[2]", "value": "52.7% and 50.8%"}]}, {"substance": "MBP-MESP-1 (natural protein)", "values": [{"measurement": "Shift to pellet (%)", "setting": "[2]", "value": "56.1% and 41.6%"}]}]}
